# Experimental data taken from paper PMC9482650, “Quantitative fragmentomics allow affinity mapping of interactomes” (Nature Communications, 2022).
# T1: DLG3_2, Q92796
# T1 sequence (Q92796 221-321, limits assumed, looked up): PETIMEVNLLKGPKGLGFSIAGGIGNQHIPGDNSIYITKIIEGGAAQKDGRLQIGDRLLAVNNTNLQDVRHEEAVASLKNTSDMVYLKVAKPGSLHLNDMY
# T2: GRIP1_2, Q9Y3R0
# T2 sequence (Q9Y3R0 145-248, limits assumed, looked up): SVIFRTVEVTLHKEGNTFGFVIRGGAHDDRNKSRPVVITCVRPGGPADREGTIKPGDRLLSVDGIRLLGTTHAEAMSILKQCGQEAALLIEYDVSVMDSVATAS
# T3: LNX2_2, Q8N448
# T3 sequence (Q8N448 334-432, limits assumed, looked up): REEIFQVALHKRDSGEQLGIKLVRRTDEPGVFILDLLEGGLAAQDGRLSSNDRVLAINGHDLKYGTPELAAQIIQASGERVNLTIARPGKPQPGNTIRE
# T4: APBA3_1, O96018
# T4 sequence (O96018 389-490, limits assumed, looked up): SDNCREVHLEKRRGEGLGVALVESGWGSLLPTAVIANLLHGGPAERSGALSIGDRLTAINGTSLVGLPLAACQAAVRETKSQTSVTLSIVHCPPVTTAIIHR
# T5: TX1BP3, O14907
# T5 sequence (O14907 10-122, limits assumed, looked up): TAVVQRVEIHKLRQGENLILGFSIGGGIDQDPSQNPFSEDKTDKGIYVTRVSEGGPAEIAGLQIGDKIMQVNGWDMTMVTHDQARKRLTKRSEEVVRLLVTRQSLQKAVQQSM
# T6: DLG3_1, Q92796
# T6 sequence (Q92796 125-227, limits assumed, looked up): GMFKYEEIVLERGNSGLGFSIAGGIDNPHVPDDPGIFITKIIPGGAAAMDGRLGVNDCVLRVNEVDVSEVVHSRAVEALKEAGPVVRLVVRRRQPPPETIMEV
# T7: RADIL, Q96JH8
# T7 sequence (Q96JH8 971-1071, limits assumed, looked up): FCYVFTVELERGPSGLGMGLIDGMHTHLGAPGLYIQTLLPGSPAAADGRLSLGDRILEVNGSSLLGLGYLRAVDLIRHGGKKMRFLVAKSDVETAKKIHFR
# T8: APBA1_1, Q02410
# T8 sequence (Q02410 651-752, limits assumed, looked up): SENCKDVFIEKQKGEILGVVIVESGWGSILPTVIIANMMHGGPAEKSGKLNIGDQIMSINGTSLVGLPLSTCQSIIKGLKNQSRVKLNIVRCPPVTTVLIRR
# T9: MPP2, Q14168
# T9 sequence (Q14168 180-250, limits assumed, looked up): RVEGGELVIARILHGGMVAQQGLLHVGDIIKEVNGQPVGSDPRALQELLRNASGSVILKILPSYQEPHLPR
# T10: SNTB1, Q13884
# T10 sequence (Q13884 107-205, limits assumed, looked up): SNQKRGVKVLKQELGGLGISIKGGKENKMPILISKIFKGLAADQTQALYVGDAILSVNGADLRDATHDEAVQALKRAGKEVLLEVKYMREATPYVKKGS
# T11: APBA1_2, Q02410
# T11 sequence (Q02410 742-832, limits assumed, looked up): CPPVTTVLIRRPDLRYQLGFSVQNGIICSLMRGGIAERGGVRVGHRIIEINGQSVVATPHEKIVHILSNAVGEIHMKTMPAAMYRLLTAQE
# T12: MPDZ_5, O75970
# T12 sequence (O75970 695-796, limits assumed, looked up): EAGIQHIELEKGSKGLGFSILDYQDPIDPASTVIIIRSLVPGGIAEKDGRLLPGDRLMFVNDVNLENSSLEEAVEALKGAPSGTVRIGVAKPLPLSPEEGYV
# B1: SLC15A2, Q16348 (peptide)
# chain: IKLETKKTKL
# Target: T1, DLG3_2, Q92796
# Test: holdup assay
# Parameters: key: below the threshold = too weak to quantify, mostly under pKd 3.1 to 4
# Settings: plain residues with an end cap or a label only (N-terminal biotin on a linker: ado-ado)
row,pKd,Binder
1,below the threshold,B1

# Target: TJP1_2, Q07157
# Test: holdup assay
# Parameters: key: below the threshold = too weak to quantify, mostly under pKd 3.1 to 4
# Settings: plain residues with an end cap or a label only (N-terminal biotin on a linker: ado-ado)
# TJP1_2, Q07157, sequence (Q07157 181-274): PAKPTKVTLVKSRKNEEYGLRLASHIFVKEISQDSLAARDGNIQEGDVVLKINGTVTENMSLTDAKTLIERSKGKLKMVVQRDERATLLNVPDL
row,pKd,Binder
1,below the threshold,B1

# Target: LNX1_2, Q8TBB1
# Test: holdup assay
# Parameters: key: below the threshold = too weak to quantify, mostly under pKd 3.1 to 4
# Settings: plain residues with an end cap or a label only (N-terminal biotin on a linker: ado-ado)
# LNX1_2, Q8TBB1, sequence (Q8TBB1 371-470): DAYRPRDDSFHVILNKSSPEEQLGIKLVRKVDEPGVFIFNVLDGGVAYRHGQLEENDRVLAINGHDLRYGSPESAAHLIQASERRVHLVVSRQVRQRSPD
row,pKd,Binder
1,below the threshold,B1

# Target: T2, GRIP1_2, Q9Y3R0
# Test: holdup assay
# Parameters: key: below the threshold = too weak to quantify, mostly under pKd 3.1 to 4
# Settings: plain residues with an end cap or a label only (N-terminal biotin on a linker: ado-ado)
row,pKd,Binder
1,below the threshold,B1

# Target: T3, LNX2_2, Q8N448
# Test: holdup assay
# Parameters: key: below the threshold = too weak to quantify, mostly under pKd 3.1 to 4
# Settings: plain residues with an end cap or a label only (N-terminal biotin on a linker: ado-ado)
row,pKd,Binder
1,below the threshold,B1

# Target: T4, APBA3_1, O96018
# Test: holdup assay
# Parameters: key: below the threshold = too weak to quantify, mostly under pKd 3.1 to 4
# Settings: plain residues with an end cap or a label only (N-terminal biotin on a linker: ado-ado)
row,pKd,Binder
1,below the threshold,B1

# Target: DLG4_3, P78352
# Test: holdup assay
# Parameters: key: below the threshold = too weak to quantify, mostly under pKd 3.1 to 4
# Settings: plain residues with an end cap or a label only (N-terminal biotin on a linker: ado-ado)
# DLG4_3, P78352, sequence (P78352 306-403): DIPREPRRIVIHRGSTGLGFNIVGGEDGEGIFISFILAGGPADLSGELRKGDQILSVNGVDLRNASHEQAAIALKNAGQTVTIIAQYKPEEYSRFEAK
row,pKd,Binder
1,below the threshold,B1

# Target: PICK1, Q9NRD5
# Test: holdup assay
# Parameters: key: below the threshold = too weak to quantify, mostly under pKd 3.1 to 4
# Settings: plain residues with an end cap or a label only (N-terminal biotin on a linker: ado-ado)
# PICK1, Q9NRD5, sequence (Q9NRD5 17-115): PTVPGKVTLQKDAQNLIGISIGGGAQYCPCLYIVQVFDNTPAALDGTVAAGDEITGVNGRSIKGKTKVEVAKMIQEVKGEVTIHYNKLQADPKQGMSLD
row,pKd,Binder
1,below the threshold,B1

# Target: PDZRN4_1, Q6ZMN7
# Test: holdup assay
# Parameters: key: below the threshold = too weak to quantify, mostly under pKd 3.1 to 4
# Settings: plain residues with an end cap or a label only (N-terminal biotin on a linker: ado-ado)
# PDZRN4_1, Q6ZMN7, sequence (Q6ZMN7 213-318): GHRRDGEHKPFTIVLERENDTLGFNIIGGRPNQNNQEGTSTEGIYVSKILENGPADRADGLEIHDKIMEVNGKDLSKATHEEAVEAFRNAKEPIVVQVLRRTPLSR
row,pKd,Binder
1,3.56,B1

# Target: DLG2_2, Q15700
# Test: holdup assay
# Parameters: key: below the threshold = too weak to quantify, mostly under pKd 3.1 to 4
# Settings: plain residues with an end cap or a label only (N-terminal biotin on a linker: ado-ado)
# DLG2_2, Q15700, sequence (Q15700 189-283): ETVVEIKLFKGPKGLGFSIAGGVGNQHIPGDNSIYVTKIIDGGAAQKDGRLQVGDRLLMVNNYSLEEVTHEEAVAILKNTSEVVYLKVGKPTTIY
row,pKd,Binder
1,3.66,B1

# Target: T5, TX1BP3, O14907
# Test: holdup assay
# Parameters: key: below the threshold = too weak to quantify, mostly under pKd 3.1 to 4
# Settings: plain residues with an end cap or a label only (N-terminal biotin on a linker: ado-ado)
row,pKd,Binder
1,4.02,B1

# Target: T6, DLG3_1, Q92796
# Test: holdup assay
# Parameters: key: below the threshold = too weak to quantify, mostly under pKd 3.1 to 4
# Settings: plain residues with an end cap or a label only (N-terminal biotin on a linker: ado-ado)
row,pKd,Binder
1,3.69,B1

# Target: CASK, O14936
# Test: holdup assay
# Parameters: key: below the threshold = too weak to quantify, mostly under pKd 3.1 to 4
# Settings: plain residues with an end cap or a label only (N-terminal biotin on a linker: ado-ado)
# CASK, O14936, sequence (O14936 487-570): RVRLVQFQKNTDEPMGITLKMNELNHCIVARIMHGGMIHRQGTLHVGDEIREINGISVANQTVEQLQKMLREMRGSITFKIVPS
row,pKd,Binder
1,below the threshold,B1

# Target: T7, RADIL, Q96JH8
# Test: holdup assay
# Parameters: key: below the threshold = too weak to quantify, mostly under pKd 3.1 to 4
# Settings: plain residues with an end cap or a label only (N-terminal biotin on a linker: ado-ado)
row,pKd,Binder
1,below the threshold,B1

# Target: ARHGEF12, Q9NZN5-2
# Test: holdup assay
# Parameters: key: below the threshold = too weak to quantify, mostly under pKd 3.1 to 4
# Settings: plain residues with an end cap or a label only (N-terminal biotin on a linker: ado-ado)
# ARHGEF12, Q9NZN5-2, sequence (Q9NZN5 other isoform, or with tags, fused parts or gaps): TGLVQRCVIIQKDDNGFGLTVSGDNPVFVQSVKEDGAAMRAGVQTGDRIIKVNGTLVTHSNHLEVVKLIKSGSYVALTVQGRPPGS
row,pKd,Binder
1,4.69,B1

# Target: T8, APBA1_1, Q02410
# Test: holdup assay
# Parameters: key: below the threshold = too weak to quantify, mostly under pKd 3.1 to 4
# Settings: plain residues with an end cap or a label only (N-terminal biotin on a linker: ado-ado)
row,pKd,Binder
1,below the threshold,B1

# Target: TJP2_1, Q9UDY2
# Test: holdup assay
# Parameters: key: below the threshold = too weak to quantify, mostly under pKd 3.1 to 4
# Settings: plain residues with an end cap or a label only (N-terminal biotin on a linker: ado-ado)
# TJP2_1, Q9UDY2, sequence (Q9UDY2 24-128): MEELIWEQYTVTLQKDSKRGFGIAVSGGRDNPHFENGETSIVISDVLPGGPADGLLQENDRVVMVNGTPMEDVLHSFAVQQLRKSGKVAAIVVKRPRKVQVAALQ
row,pKd,Binder
1,3.85,B1

# Target: MAGI2_4, Q86UL8
# Test: holdup assay
# Parameters: key: below the threshold = too weak to quantify, mostly under pKd 3.1 to 4
# Settings: plain residues with an end cap or a label only (N-terminal biotin on a linker: ado-ado)
# MAGI2_4, Q86UL8, sequence (Q86UL8 772-865): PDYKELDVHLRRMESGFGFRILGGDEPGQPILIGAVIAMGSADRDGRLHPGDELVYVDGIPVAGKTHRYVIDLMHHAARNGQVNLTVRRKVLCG
row,pKd,Binder
1,below the threshold,B1

# Target: LAP2, Q96RT1
# Test: holdup assay
# Parameters: key: below the threshold = too weak to quantify, mostly under pKd 3.1 to 4
# Settings: plain residues with an end cap or a label only (N-terminal biotin on a linker: ado-ado)
# LAP2, Q96RT1, sequence (Q96RT1 other isoform, or with tags, fused parts or gaps): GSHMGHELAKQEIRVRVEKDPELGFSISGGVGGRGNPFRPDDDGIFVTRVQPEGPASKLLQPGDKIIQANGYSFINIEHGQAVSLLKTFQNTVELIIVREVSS
row,pKd,Binder
1,below the threshold,B1

# Target: T9, MPP2, Q14168
# Test: holdup assay
# Parameters: key: below the threshold = too weak to quantify, mostly under pKd 3.1 to 4
# Settings: plain residues with an end cap or a label only (N-terminal biotin on a linker: ado-ado)
row,pKd,Binder
1,below the threshold,B1

# Target: T10, SNTB1, Q13884
# Test: holdup assay
# Parameters: key: below the threshold = too weak to quantify, mostly under pKd 3.1 to 4
# Settings: plain residues with an end cap or a label only (N-terminal biotin on a linker: ado-ado)
row,pKd,Binder
1,3.71,B1

# Target: T11, APBA1_2, Q02410
# Test: holdup assay
# Parameters: key: below the threshold = too weak to quantify, mostly under pKd 3.1 to 4
# Settings: plain residues with an end cap or a label only (N-terminal biotin on a linker: ado-ado)
row,pKd,Binder
1,3.67,B1

# Target: DLG1_2, Q12959
# Test: holdup assay
# Parameters: key: below the threshold = too weak to quantify, mostly under pKd 3.1 to 4
# Settings: plain residues with an end cap or a label only (N-terminal biotin on a linker: ado-ado)
# DLG1_2, Q12959, sequence (Q12959 314-412): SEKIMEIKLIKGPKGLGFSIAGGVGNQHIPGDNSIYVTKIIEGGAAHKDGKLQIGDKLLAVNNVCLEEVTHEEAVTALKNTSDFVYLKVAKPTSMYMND
row,pKd,Binder
1,below the threshold,B1

# Target: Inadl_10, Q8NI35
# Test: holdup assay
# Parameters: key: below the threshold = too weak to quantify, mostly under pKd 3.1 to 4
# Settings: plain residues with an end cap or a label only (N-terminal biotin on a linker: ado-ado)
# Inadl_10, Q8NI35, sequence (Q8NI35 1673-1763): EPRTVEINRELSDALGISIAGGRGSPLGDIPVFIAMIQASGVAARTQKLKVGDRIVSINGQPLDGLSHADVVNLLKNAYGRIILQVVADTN
row,pKd,Binder
1,below the threshold,B1

# Target: T12, MPDZ_5, O75970
# Test: holdup assay
# Parameters: key: below the threshold = too weak to quantify, mostly under pKd 3.1 to 4
# Settings: plain residues with an end cap or a label only (N-terminal biotin on a linker: ado-ado)
row,pKd,Binder
1,below the threshold,B1

# Target: MAGI3_2, Q5TCQ9
# Test: holdup assay
# Parameters: key: below the threshold = too weak to quantify, mostly under pKd 3.1 to 4
# Settings: plain residues with an end cap or a label only (N-terminal biotin on a linker: ado-ado)
# MAGI3_2, Q5TCQ9, sequence (Q5TCQ9 398-503): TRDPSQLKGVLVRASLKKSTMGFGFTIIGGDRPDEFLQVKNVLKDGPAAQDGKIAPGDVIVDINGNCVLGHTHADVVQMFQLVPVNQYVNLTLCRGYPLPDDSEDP
row,pKd,Binder
1,3.49,B1
